Test results as given in the supplement of paper PMC10567573.

Assay: protein stability index of a GFP-peptide fusion (GPS, HEK-293T) (PSI 1-6); higher = more stable
Settings: c terminus: native
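Also: lentivirally expressed fusion library, cells FACS-sorted into six equal-sized GFP/DsRed ratio bins, PSI computed from sequencing read fractions per bin weighted by bin number.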

## HSLRAVSTDPPHHDHHDEFCLMPR [BEX2 addR]
parent: NP_116010.1
  protein stability index: 4.61

## LPALFTDLYSQEITAEEAREALPR [SNF8 addR]
parent: NP_009172.2
  protein stability index: 3.55

## CQPISFSGFGAEDDDLGGLGLGPR [POLD2 addR]
parent: NP_006221.1
  protein stability index: 4.36

## EQRNSRWNTVLRAVKAKTHHLEPR [TRPA1 addR]
parent: NP_015628.1
  protein stability index: 4.5
